Where no end group is shown, it is not given here. [ ]: non-standard residue; d: D form. Cha = N[C@@H](CC1CCCCC1)C(=O)O
Columns and labels:
[1] = Peptide gelation study (vial inversion method); format: physicochemical; conditions: 1 mg/ml and 10 mg/ml, compared to IIZK and IZZK, FIG. 57
Method: The preweighed (as per the required final concentration) peptide powder was dissolved in 0.9 mL of Milli-Q® water in a glass vial. The solution was vortexed for 5-10 s to obtain a clear and homogeneous solution. To this peptide solution, 0.1 mL of PBS buffer (10×, w/o Ca^2+ and Mg^2+) was added. To ensure a homogeneous distribution of buffer in the solution, the glass vial was further vortexed for 2-3 s. The glass vial was kept undisturbed on the bench, and hydrogel formation was observed using the vial inversion method, as shown in FIG. 9. The pH of the solutions of IVFK (SEQ ID NO. 1) and IVZK (SEQ ID NO. 2) was 5.57 and 5.48 at a 5 mg/mL concentration, respectively. After the addition of PBS, the pH changed to 7.7 and 7.6 for IVFK (SEQ ID NO. 1) and IVZK (SEQ ID NO. 2), respectively. The pH of the Milli-Q® water and phosphate buffer used was 6.7 and 7.4, respectively.

[2] = Rheological characterization of SUP bulk hydrogels; format: physicochemical
Method: The mechanical stiffness of the peptide hydrogels was analyzed using a TA Ares-G2 Rheometer equipped with parallel-plate geometries of 8 mm diameter at room temperature. The sample gap between the upper and the lower geometries was set at 1.8 mm. The hydrogels were prepared from 135 μL of peptide solution that was mixed with 15 μL of 10×PBS in an 8 mm i.d. poly(methyl methacrylate) (PMMA) casting ring and left for 1 day before measurement. The rings were kept inside Petri dishes at room temperature with water surrounding them and tightly sealed to avoid dehydration. To control the accuracy of the measurements, six replicates for each peptide hydrogel were prepared. The stiffness was analyzed through three successive tests, which were time sweep, frequency sweep, and amplitude sweep. Time sweep was first performed for 5 min with an angular frequency and a strain of 1 rad/s and 0.1%, respectively. A frequency sweep was subsequently performed on the sample for a range of angular frequency of 0.1-100 rad/s with the same strain of 0.1%. The tests were completed with the amplitude sweep by applying a gradual increase of strain […] at 1 rad/s angular frequency.

Substance	Self-assembly rate (time to form a gel) [1]	Loss modulus (G″) ([2]; 1 mg/mL) [kPa]	Storage Modulus (G′, kPa) ([2]; 1 mg/mL) [kPa]	tan δ (G″/G′) ([2]; 1 mg/mL)	Loss modulus (G″) ([2]; 2 mg/mL) [kPa]	Storage Modulus (G′, kPa) ([2]; 2 mg/mL) [kPa]	tan δ (G″/G′) ([2]; 2 mg/mL)	Loss modulus (G″) ([2]; 5 mg/mL) [kPa]	Storage Modulus (G′, kPa) ([2]; 5 mg/mL) [kPa]	tan δ (G″/G′) ([2]; 5 mg/mL)	Loss modulus (G″) ([2]; 8 mg/mL) [kPa]	Storage Modulus (G′, kPa) ([2]; 8 mg/mL) [kPa]	tan δ (G″/G′) ([2]; 8 mg/mL)	Loss modulus (G″) ([2]; 10 mg/mL) [kPa]	Storage Modulus (G′, kPa) ([2]; 10 mg/mL) [kPa]	tan δ (G″/G′) ([2]; 10 mg/mL)	Loss modulus (G″) ([2]; 13 mg/mL) [kPa]	Storage Modulus (G′, kPa) ([2]; 13 mg/mL) [kPa]	tan δ (G″/G′) ([2]; 13 mg/mL)
IIFK: self-assembling ultrashort tetrapeptide, one-letter sequence IIFK	slower than the Cha-containing peptides	0.13 ± 0.04	1.25 ± 0.86	0.10	1.31 ± 0.12	14.45 ± 1.37	0.09	2.39 ± 0.11	27.26 ± 1.30	0.09	5.00 ± 0.31	49.74 ± 5.02	0.10	9.04 ± 0.56	94.18 ± 7.12	0.10	8.90 ± 0.36	108.21 ± 5.02	0.08
IIZK: self-assembling ultrashort tetrapeptide, Cha-containing, one-letter sequence IIZK (II[Cha]K)	–	0.88 ± 0.04	6.52 ± 0.18	0.13	2.02 ± 0.09	16.82 ± 0.72	0.12	7.08 ± 0.59	64.74 ± 4.89	0.11	10.91 ± 0.44	89.40 ± 1.86	0.12	15.54 ± 0.68	134.04 ± 5.99	0.12	37.76 ± 2.38	271.34 ± 35.09	0.14

Source: patent publication US20230382948A1, “DELIVERY OF ENDOTHELIAL CELL-LADEN MICROGEL ELICITS ANGIOGENESIS IN SELF-ASSEMBLING ULTRASHORT PEPTIDE HYDROGELS” (KING ABDULLAH UNIVERSITY OF SCIENCE AND TECHNOLOGY, priority 2020, published 2023)
